# Target: biotinylated murine IL-21 (murine, UniProt Q9ES17 18-146)
# Assay: flow cytometry on MOLT-13, HuT-78, HuT-102, DEL and YT cells, 40 ng/ml to 1000 ng/ml, Streptavidin-PE
# Method: Cells were analyzed on a FACSScan using CellQuest software (Becton Dickinson, Mountain View, Calif.).
binder,measurement,value
"human IL-21 receptor (receptor, also called zalpha11 receptor; zalpha11) not shown",binding result,binds
